According to patent US20170266254A1 (AILERON THERAPEUTICS, published 2017):
Bridges are numbered along the chain shown (N, C = ends). [ ]: non-standard residue; d: D form. S5 = C=CCCC[C@](C)(N)C(=O)O

T1: C-terminally 6x Histidine-tagged Beta-Catenin (aa 134-668, 59 KD) (UniProt P35222 134-668)
T1 construct: range 134-668; Armadillo repeat region
T1 sequence: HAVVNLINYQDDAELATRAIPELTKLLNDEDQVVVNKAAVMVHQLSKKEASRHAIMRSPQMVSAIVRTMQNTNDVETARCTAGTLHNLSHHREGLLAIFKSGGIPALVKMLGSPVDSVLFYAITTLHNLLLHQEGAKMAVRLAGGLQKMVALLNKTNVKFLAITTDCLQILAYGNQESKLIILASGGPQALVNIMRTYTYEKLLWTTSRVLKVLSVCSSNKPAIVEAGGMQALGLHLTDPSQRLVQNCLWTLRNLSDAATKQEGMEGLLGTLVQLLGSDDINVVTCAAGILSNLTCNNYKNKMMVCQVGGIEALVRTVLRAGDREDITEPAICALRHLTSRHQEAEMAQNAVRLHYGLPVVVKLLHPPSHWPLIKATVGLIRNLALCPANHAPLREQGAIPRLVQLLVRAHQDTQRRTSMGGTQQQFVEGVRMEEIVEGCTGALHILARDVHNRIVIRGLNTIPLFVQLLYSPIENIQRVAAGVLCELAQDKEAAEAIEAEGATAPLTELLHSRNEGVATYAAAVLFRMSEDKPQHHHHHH

B1: SP43 (peptide)
peptide: Ac-SA[S5]RDL[S5]NVKSSLV-NH2
modifications: staple 3-7
SMILES: CC(=O)N[C@@H](CO)C(=O)N[C@@H](C)C(=O)N[C@@]1(C)CCCC=CCCC[C@@](C)(C(=O)N[C@@H](CC(N)=O)C(=O)N[C@H](C(=O)N[C@@H](CCCCN)C(=O)N[C@@H](CO)C(=O)N[C@@H](CO)C(=O)N[C@@H](CC(C)C)C(=O)N[C@H](C(N)=O)C(C)C)C(C)C)NC(=O)[C@H](CC(C)C)NC(=O)[C@H](CC(=O)O)NC(=O)[C@H](CCCNC(=N)N)NC1=O
notes: also called Ac-SA$RDL$NVKSSLV-NH2
B2: SP50 (peptide)
peptide: LGANDELISFADEGAQEEKSS
chain: AARDLANVKSSLV
modifications: not fully specified; N-terminal acetyl; C-terminal amide; PEG3 = NH-(PEG)3-COOH (16 atoms) linker between the two peptide parts; $ = (S)-alpha-(2'-pentenyl)alanine at positions 11 and 15 of the first part and at positions 2 and 6 of the second part, each pair joined by an all-carbon crosslinker with one double bond
notes: The two peptide parts are joined by a non-peptide PEG3 spacer, not by a peptide bond
B3: SP54 (peptide)
peptide: Ac-SA[S5]RDL[S5]NVKSSLV-NH2
modifications: staple 3-7
SMILES: CC(=O)N[C@@H](CO)C(=O)N[C@@H](C)C(=O)N[C@@]1(C)CCCC=CCCC[C@@](C)(C(=O)N[C@@H](CC(N)=O)C(=O)N[C@H](C(=O)N[C@@H](CCCCN)C(=O)N[C@@H](CO)C(=O)N[C@@H](CO)C(=O)N[C@@H](CC(C)C)C(=O)N[C@H](C(N)=O)C(C)C)C(C)C)NC(=O)[C@H](CC(C)C)NC(=O)[C@H](CC(=O)O)NC(=O)[C@H](CCCNC(=N)N)NC1=O
notes: as for B1
B4: SP1 (peptide)
peptide: Ac-NL[S5]NVK[S5]SLVNQS-NH2
modifications: staple 3-7
SMILES: CC(=O)N[C@@H](CC(N)=O)C(=O)N[C@@H](CC(C)C)C(=O)N[C@@]1(C)CCCC=CCCC[C@@](C)(C(=O)N[C@@H](CO)C(=O)N[C@@H](CC(C)C)C(=O)N[C@H](C(=O)N[C@@H](CC(N)=O)C(=O)N[C@@H](CCC(N)=O)C(=O)N[C@@H](CO)C(N)=O)C(C)C)NC(=O)[C@H](CCCCN)NC(=O)[C@H](C(C)C)NC(=O)[C@H](CC(N)=O)NC1=O
notes: also called Ac-NL$NVK$SLVNQS-NH2
B5: SP51 (peptide)
peptide: LGANDELISFADEGAQEEKSS
chain: AARDLANVKSSLV
modifications: not fully specified; N-terminal acetyl; C-terminal amide; PEG4 = NH-(PEG)4-COOH (19 atoms) linker between the two peptide parts; $ = (S)-alpha-(2'-pentenyl)alanine at positions 11 and 15 of the first part and at positions 2 and 6 of the second part, each pair joined by an all-carbon crosslinker with one double bond
notes: The two peptide parts are joined by a non-peptide PEG4 spacer, not by a peptide bond
B6: SP42 (peptide)
peptide: Ac-SA[S5]RNL[S5]DVKSSLV-NH2
modifications: staple 3-7
SMILES: CC(=O)N[C@@H](CO)C(=O)N[C@@H](C)C(=O)N[C@@]1(C)CCCC=CCCC[C@@](C)(C(=O)N[C@@H](CC(=O)O)C(=O)N[C@H](C(=O)N[C@@H](CCCCN)C(=O)N[C@@H](CO)C(=O)N[C@@H](CO)C(=O)N[C@@H](CC(C)C)C(=O)N[C@H](C(N)=O)C(C)C)C(C)C)NC(=O)[C@H](CC(C)C)NC(=O)[C@H](CC(N)=O)NC(=O)[C@H](CCCNC(=N)N)NC1=O
notes: also called Ac-SA$RNL$DVKSSLV-NH2
B7: SP3 (peptide)
peptide: Ac-RNLA[S5]VKS[S5]LVNES-NH2
modifications: staple 5-9
SMILES: CC(=O)N[C@@H](CCCNC(=N)N)C(=O)N[C@@H](CC(N)=O)C(=O)N[C@@H](CC(C)C)C(=O)N[C@@H](C)C(=O)N[C@@]1(C)CCCC=CCCC[C@@](C)(C(=O)N[C@@H](CC(C)C)C(=O)N[C@H](C(=O)N[C@@H](CC(N)=O)C(=O)N[C@@H](CCC(=O)O)C(=O)N[C@@H](CO)C(N)=O)C(C)C)NC(=O)[C@H](CO)NC(=O)[C@H](CCCCN)NC(=O)[C@H](C(C)C)NC1=O
notes: also called Ac-RNLA$VKS$LVNES-NH2
B8: SP40 (peptide)
peptide: Ac-LGANDELISF[S5]DEG[S5]QQEKSSN-NH2
modifications: staple 11-15
SMILES: CC[C@H](C)[C@H](NC(=O)[C@H](CC(C)C)NC(=O)[C@H](CCC(=O)O)NC(=O)[C@H](CC(=O)O)NC(=O)[C@H](CC(N)=O)NC(=O)[C@H](C)NC(=O)CNC(=O)[C@H](CC(C)C)NC(C)=O)C(=O)N[C@@H](CO)C(=O)N[C@@H](Cc1ccccc1)C(=O)N[C@@]1(C)CCCC=CCCC[C@@](C)(C(=O)N[C@@H](CCC(N)=O)C(=O)N[C@@H](CCC(N)=O)C(=O)N[C@@H](CCC(=O)O)C(=O)N[C@@H](CCCCN)C(=O)N[C@@H](CO)C(=O)N[C@@H](CO)C(=O)N[C@@H](CC(N)=O)C(N)=O)NC(=O)CNC(=O)[C@H](CCC(=O)O)NC(=O)[C@H](CC(=O)O)NC1=O
B9: SP45 (peptide)
peptide: Ac-LGANDELISF[S5]DQG[S5]QEQKSSN-NH2
modifications: staple 11-15
SMILES: CC[C@H](C)[C@H](NC(=O)[C@H](CC(C)C)NC(=O)[C@H](CCC(=O)O)NC(=O)[C@H](CC(=O)O)NC(=O)[C@H](CC(N)=O)NC(=O)[C@H](C)NC(=O)CNC(=O)[C@H](CC(C)C)NC(C)=O)C(=O)N[C@@H](CO)C(=O)N[C@@H](Cc1ccccc1)C(=O)N[C@@]1(C)CCCC=CCCC[C@@](C)(C(=O)N[C@@H](CCC(N)=O)C(=O)N[C@@H](CCC(=O)O)C(=O)N[C@@H](CCC(N)=O)C(=O)N[C@@H](CCCCN)C(=O)N[C@@H](CO)C(=O)N[C@@H](CO)C(=O)N[C@@H](CC(N)=O)C(N)=O)NC(=O)CNC(=O)[C@H](CCC(N)=O)NC(=O)[C@H](CC(=O)O)NC1=O
B10: SP46 (peptide)
peptide: Ac-LGANDELISF[S5]DEG[S5]QQQKSSN-NH2
modifications: staple 11-15
SMILES: CC[C@H](C)[C@H](NC(=O)[C@H](CC(C)C)NC(=O)[C@H](CCC(=O)O)NC(=O)[C@H](CC(=O)O)NC(=O)[C@H](CC(N)=O)NC(=O)[C@H](C)NC(=O)CNC(=O)[C@H](CC(C)C)NC(C)=O)C(=O)N[C@@H](CO)C(=O)N[C@@H](Cc1ccccc1)C(=O)N[C@@]1(C)CCCC=CCCC[C@@](C)(C(=O)N[C@@H](CCC(N)=O)C(=O)N[C@@H](CCC(N)=O)C(=O)N[C@@H](CCC(N)=O)C(=O)N[C@@H](CCCCN)C(=O)N[C@@H](CO)C(=O)N[C@@H](CO)C(=O)N[C@@H](CC(N)=O)C(N)=O)NC(=O)CNC(=O)[C@H](CCC(=O)O)NC(=O)[C@H](CC(=O)O)NC1=O
B11: SP44 (peptide)
peptide: Ac-LGANDELISF[S5]DQG[S5]QQEKSSN-NH2
modifications: staple 11-15
SMILES: CC[C@H](C)[C@H](NC(=O)[C@H](CC(C)C)NC(=O)[C@H](CCC(=O)O)NC(=O)[C@H](CC(=O)O)NC(=O)[C@H](CC(N)=O)NC(=O)[C@H](C)NC(=O)CNC(=O)[C@H](CC(C)C)NC(C)=O)C(=O)N[C@@H](CO)C(=O)N[C@@H](Cc1ccccc1)C(=O)N[C@@]1(C)CCCC=CCCC[C@@](C)(C(=O)N[C@@H](CCC(N)=O)C(=O)N[C@@H](CCC(N)=O)C(=O)N[C@@H](CCC(=O)O)C(=O)N[C@@H](CCCCN)C(=O)N[C@@H](CO)C(=O)N[C@@H](CO)C(=O)N[C@@H](CC(N)=O)C(N)=O)NC(=O)CNC(=O)[C@H](CCC(N)=O)NC(=O)[C@H](CC(=O)O)NC1=O
B12: SP41 (peptide)
peptide: Ac-LGANDELISF[S5]DEG[S5]QEQKSSN-NH2
modifications: staple 11-15
SMILES: CC[C@H](C)[C@H](NC(=O)[C@H](CC(C)C)NC(=O)[C@H](CCC(=O)O)NC(=O)[C@H](CC(=O)O)NC(=O)[C@H](CC(N)=O)NC(=O)[C@H](C)NC(=O)CNC(=O)[C@H](CC(C)C)NC(C)=O)C(=O)N[C@@H](CO)C(=O)N[C@@H](Cc1ccccc1)C(=O)N[C@@]1(C)CCCC=CCCC[C@@](C)(C(=O)N[C@@H](CCC(N)=O)C(=O)N[C@@H](CCC(=O)O)C(=O)N[C@@H](CCC(N)=O)C(=O)N[C@@H](CCCCN)C(=O)N[C@@H](CO)C(=O)N[C@@H](CO)C(=O)N[C@@H](CC(N)=O)C(N)=O)NC(=O)CNC(=O)[C@H](CCC(=O)O)NC(=O)[C@H](CC(=O)O)NC1=O
B13: SP53 (peptide)
peptide: Ac-LGANDQLISF[S5]DEG[S5]QEEKSSN-NH2
modifications: staple 11-15
SMILES: CC[C@H](C)[C@H](NC(=O)[C@H](CC(C)C)NC(=O)[C@H](CCC(N)=O)NC(=O)[C@H](CC(=O)O)NC(=O)[C@H](CC(N)=O)NC(=O)[C@H](C)NC(=O)CNC(=O)[C@H](CC(C)C)NC(C)=O)C(=O)N[C@@H](CO)C(=O)N[C@@H](Cc1ccccc1)C(=O)N[C@@]1(C)CCCC=CCCC[C@@](C)(C(=O)N[C@@H](CCC(N)=O)C(=O)N[C@@H](CCC(=O)O)C(=O)N[C@@H](CCC(=O)O)C(=O)N[C@@H](CCCCN)C(=O)N[C@@H](CO)C(=O)N[C@@H](CO)C(=O)N[C@@H](CC(N)=O)C(N)=O)NC(=O)CNC(=O)[C@H](CCC(=O)O)NC(=O)[C@H](CC(=O)O)NC1=O
B14: SP36 (peptide)
peptide: Ac-VERGLANVK[S5]SLV[S5]ES-NH2
modifications: staple 10-14
SMILES: CC(=O)N[C@H](C(=O)N[C@@H](CCC(=O)O)C(=O)N[C@@H](CCCNC(=N)N)C(=O)NCC(=O)N[C@@H](CC(C)C)C(=O)N[C@@H](C)C(=O)N[C@@H](CC(N)=O)C(=O)N[C@H](C(=O)N[C@@H](CCCCN)C(=O)N[C@@]1(C)CCCC=CCCC[C@@](C)(C(=O)N[C@@H](CCC(=O)O)C(=O)N[C@@H](CO)C(N)=O)NC(=O)[C@H](C(C)C)NC(=O)[C@H](CC(C)C)NC(=O)[C@H](CO)NC1=O)C(C)C)C(C)C

Molecular target: T1, C-terminally 6x Histidine-tagged …
Assay: competitive fluorescence polarization, FAM-labelled linear probe as competitor, His-tagged beta-catenin 134-668
Summary of the method: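 FP competition in 25 mM Tris-HCl pH 7.5, 200 mM NaCl, 5 mM CHAPS, 2 mM DTT at room temperature. Competitor peptides at 40–0.7 μM 2× working range, constant DMSO. Probe (benchmark peptide with N-terminal FAM via β-Ala spacer) from 25 nM 10× stock. Read after 3 h in the dark, ex 485/em 528 nm.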

Binder	IC50 [µM]
B1	≥ 100
B2	1.1
B3	≥ 100
B4	≥ 100
B5	0.603
B6	≥ 100
B7	≥ 100
B8	6.63
B9	10.9
B10	23.7
B11	3.75
B12	19.5
B13	24.4
B14	≥ 100
